PMC9361567
Several values for one entry are separate records, joined by “and”; a condition that tells them apart may be missing. Equal entries are not always repeated.

Legend:
[1] = target: HALO::PLP^584-1811 WT (purified from Sf9) (Drosophila); assay: mass photometry
[2] = target: KHC + LC (Kinesin-1 HC-LCs complex) (Drosophila) (UniProt P17210); assay: BLI
[3] = target: KHC^Δh2 + LC (Drosophila) (UniProt P17210); assay: BLI

stoichiometry N [1]: 2 and 4
Kd [2]: 1700 nM
Kd [3]: 65 nM
Substance: HALO::PLP^584-1811 WT (purified from Sf9) (domain or fragment)
